{"source": "paper PMC8169799", "about": "(iScience, 2021)", "proteins": {"B1": {"name": "copper efflux regulator (CueR), Escherichia coli (natural protein, E. coli)", "chain": "MNISDVAKITGLTSKAIRFYEEKGLVTPPMRSENGYRTYTQQHLNELTLLRQARQVGFNLEESGELVNLFNDPQRHSADVKRRTLEKVAEIERHIEELQSMRDQLLALANACPGDDSADCPIIENLSGCCHHRAG"}}, "molecular_target": "the molecule itself", "assay": "cryo-EM structure"}
{"protein": "B1", "values": [{"measurement": "stoichiometry N", "value": 2}]}
